The text below walks through data of patent US7867500B2, “Cofactor that modulates steroid receptor activities” (The United States of America as represented by the …, priority 2004, dated 2011).

One experiment concerns the target T1, p300 (Homo sapiens, UniProt Q09472).
T1 construct: expressed in transfected cells; host or cells: CV-1 (the same two-hybrid assay)
The experiment is described as follows: Mammalian two-hybrid assay with p300. The format is cell-based. Particulars: data not shown. The procedure: These assays were conducted as described (He et al., 2002). In particular, the recommended procedure for the Mammalian Matchmaker two-hybrid assay kit (Clontech) was modified slightly by changing from a chloramphenicol acetyltransferase reporter to a Luciferase Reporter pFRLuc (Stratagene), which is under the control of five repeats of the upstream activating sequence for the binding of GAL4.

The next experiment has as its target T2, PPARγ2 (Homo sapiens, UniProt P37231).
T2 construct: plus VP16 fused to the indicated full length receptors; expressed in transfected cells; host or cells: CV-1
T2 sequence (P37231 1-505): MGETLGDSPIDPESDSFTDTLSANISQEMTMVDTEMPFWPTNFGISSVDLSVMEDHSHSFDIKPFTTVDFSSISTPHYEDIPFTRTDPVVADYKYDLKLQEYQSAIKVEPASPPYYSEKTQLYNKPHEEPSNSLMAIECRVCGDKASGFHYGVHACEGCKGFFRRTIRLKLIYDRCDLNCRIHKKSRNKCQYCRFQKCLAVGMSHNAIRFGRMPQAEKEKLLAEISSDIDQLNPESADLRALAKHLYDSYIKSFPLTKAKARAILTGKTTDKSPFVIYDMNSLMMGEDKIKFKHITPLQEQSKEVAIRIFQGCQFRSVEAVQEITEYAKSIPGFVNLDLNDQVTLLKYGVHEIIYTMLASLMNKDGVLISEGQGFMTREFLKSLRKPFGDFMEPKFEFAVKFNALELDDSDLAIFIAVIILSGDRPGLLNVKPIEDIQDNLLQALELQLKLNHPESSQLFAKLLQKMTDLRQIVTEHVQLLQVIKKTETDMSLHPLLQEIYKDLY
The experiment in a line: Mammalian two-hybrid assay with VP16 full length receptor: PPARγ2. The format is cell-based. Particulars: 1 μM roziglitazone. The procedure:
FIG. 6C1-3 illustrate the association of STAMP with assorted steroid/nuclear receptors, including glucocorticoid receptors (GRs), progesterone receptors (PRs), androgen receptors (ARs), estrogen receptors (ER α or β), PPARγ2 receptors, thyroid receptor beta (TR), and retinoid (α) receptors (RAR α or RXR α). Triplicate samples of CV-1 cells were transfected (as described for FIG. 6B) with GAL, or GAL fused to TIF2.4 or STAMP834C, plus VP16 fused to the indicated full length receptors and incubated with the appropriate steroid (1 μM Dex, 20 nM R5020, 1 nM R1881, 0.1 μM triiodothyronine, or 1 μM estradiol, roziglitazone, or 9-cis-retinoic acid). The average relative luciferase activities of 2-3 experiments±S.E.M. were then plotted. FIG. 6C1 illustrates the effects of STAMP association upon GR, PR and AR induced expression. FIG. 6C2 illustrates the effects of STAMP association upon ERα, ERβ and PPARγ2 induced expression. FIG. 6C3 illustrates the effects of STAMP association upon TR, RARα and RXRα induced expression.
These assays were conducted as described (He et al., 2002). […]

The target in the next experiment is T3, GRIP1 (Mus musculus, UniProt Q61026).
T3 construct: expressed in transfected cells; host or cells: Cos-7
T3 sequence (Q61026 5-1462 limits assumed, one chain of several): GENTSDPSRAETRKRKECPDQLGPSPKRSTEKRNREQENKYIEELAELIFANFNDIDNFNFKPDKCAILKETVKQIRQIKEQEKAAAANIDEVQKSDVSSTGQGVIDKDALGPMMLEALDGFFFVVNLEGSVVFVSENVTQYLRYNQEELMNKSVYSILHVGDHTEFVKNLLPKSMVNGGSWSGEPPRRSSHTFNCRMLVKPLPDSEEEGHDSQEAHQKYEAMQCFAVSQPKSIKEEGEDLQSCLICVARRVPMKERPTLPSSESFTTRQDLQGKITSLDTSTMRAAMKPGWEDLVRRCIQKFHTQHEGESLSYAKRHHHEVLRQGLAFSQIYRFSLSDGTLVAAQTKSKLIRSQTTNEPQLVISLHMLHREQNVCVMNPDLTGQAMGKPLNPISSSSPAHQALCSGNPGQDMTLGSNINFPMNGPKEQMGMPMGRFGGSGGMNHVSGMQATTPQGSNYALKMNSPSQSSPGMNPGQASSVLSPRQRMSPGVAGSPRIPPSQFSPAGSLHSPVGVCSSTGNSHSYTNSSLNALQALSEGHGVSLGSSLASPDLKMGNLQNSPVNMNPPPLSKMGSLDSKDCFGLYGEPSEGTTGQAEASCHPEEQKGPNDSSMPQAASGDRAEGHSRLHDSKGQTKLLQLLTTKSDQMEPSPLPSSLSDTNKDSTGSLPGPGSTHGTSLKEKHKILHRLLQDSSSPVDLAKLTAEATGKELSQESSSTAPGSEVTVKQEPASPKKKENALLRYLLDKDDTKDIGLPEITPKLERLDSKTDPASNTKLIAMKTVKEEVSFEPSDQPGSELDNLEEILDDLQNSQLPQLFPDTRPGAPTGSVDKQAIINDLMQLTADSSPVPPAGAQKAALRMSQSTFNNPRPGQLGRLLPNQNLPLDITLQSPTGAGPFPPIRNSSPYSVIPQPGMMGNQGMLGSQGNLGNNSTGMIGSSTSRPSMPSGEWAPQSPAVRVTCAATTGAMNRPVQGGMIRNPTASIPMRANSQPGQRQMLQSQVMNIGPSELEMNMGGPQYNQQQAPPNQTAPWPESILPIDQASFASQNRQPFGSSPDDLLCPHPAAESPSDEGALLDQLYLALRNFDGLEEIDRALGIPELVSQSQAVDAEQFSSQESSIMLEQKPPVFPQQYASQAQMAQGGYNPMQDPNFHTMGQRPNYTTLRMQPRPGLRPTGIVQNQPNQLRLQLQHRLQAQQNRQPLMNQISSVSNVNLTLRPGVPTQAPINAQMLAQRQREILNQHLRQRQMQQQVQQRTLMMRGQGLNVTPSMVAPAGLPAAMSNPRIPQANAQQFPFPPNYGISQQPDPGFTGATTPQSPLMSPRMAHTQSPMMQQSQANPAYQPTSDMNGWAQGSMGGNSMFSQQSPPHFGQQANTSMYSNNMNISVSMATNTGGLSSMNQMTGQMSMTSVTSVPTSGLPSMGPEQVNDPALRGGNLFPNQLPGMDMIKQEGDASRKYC
The experiment in a line: Whole cell co-immunoprecipitation in Cos-7 cells: HA-GRIP1. The format is binding. Particulars: EtOH ± 1 μM Dex, 2 hr. The protocol: FIG. 7C1-3 illustrate whole cell co-immunoprecipitation of STAMP, GR, and TIF2/GRIP1. Cos-7 cells that had been co-transfected with Flag/STAMP (or Flag itself), HA/GRIP1, and GR plasmids (10 μg of each/150 mm dish) for 48 hr were treated for 2 hr with EtOH±1 μM Dex before being lysed as described in Example 1. Lysate was either analyzed on SDS-PAGE gels or treated with anti-Flag antibody to immunoprecipitate Flag/STAMP. The pellets were separated on SDS-PAGE gels and Western blotted with anti-Flag (FIG. 7C1), anti-HA (FIG. 7C2), or anti-GR antibodies (FIG. 7C3). In each panel, lane 1=5.7% of input lysate, lane 2=IP pellet of Flag/STAMP, HA/GRIP1, and GR+EtOH, lane 3=IP pellet of Flag/STAMP, HA/GRIP1, and GR+Dex, and lane 4=control IP pellet of Flag, HA/GRIP1, and GR+EtOH. Similar results were obtained in a second experiment.
Immunoprecipitations were conducted as generally described in Wang et al. (2004) Mol. Endocrinol. 18: 1476-95, with slight modifications. The day before transfection, Cos-7 cells were seeded into 150 mm dishes at 200,000 cells per dish containing 20 ml of media. On the next day, about 30 μg of DNA/dish was transfected with 60 μl of FuGene reagent. […]

T1 sequence (Q09472 whole entry, species assumed): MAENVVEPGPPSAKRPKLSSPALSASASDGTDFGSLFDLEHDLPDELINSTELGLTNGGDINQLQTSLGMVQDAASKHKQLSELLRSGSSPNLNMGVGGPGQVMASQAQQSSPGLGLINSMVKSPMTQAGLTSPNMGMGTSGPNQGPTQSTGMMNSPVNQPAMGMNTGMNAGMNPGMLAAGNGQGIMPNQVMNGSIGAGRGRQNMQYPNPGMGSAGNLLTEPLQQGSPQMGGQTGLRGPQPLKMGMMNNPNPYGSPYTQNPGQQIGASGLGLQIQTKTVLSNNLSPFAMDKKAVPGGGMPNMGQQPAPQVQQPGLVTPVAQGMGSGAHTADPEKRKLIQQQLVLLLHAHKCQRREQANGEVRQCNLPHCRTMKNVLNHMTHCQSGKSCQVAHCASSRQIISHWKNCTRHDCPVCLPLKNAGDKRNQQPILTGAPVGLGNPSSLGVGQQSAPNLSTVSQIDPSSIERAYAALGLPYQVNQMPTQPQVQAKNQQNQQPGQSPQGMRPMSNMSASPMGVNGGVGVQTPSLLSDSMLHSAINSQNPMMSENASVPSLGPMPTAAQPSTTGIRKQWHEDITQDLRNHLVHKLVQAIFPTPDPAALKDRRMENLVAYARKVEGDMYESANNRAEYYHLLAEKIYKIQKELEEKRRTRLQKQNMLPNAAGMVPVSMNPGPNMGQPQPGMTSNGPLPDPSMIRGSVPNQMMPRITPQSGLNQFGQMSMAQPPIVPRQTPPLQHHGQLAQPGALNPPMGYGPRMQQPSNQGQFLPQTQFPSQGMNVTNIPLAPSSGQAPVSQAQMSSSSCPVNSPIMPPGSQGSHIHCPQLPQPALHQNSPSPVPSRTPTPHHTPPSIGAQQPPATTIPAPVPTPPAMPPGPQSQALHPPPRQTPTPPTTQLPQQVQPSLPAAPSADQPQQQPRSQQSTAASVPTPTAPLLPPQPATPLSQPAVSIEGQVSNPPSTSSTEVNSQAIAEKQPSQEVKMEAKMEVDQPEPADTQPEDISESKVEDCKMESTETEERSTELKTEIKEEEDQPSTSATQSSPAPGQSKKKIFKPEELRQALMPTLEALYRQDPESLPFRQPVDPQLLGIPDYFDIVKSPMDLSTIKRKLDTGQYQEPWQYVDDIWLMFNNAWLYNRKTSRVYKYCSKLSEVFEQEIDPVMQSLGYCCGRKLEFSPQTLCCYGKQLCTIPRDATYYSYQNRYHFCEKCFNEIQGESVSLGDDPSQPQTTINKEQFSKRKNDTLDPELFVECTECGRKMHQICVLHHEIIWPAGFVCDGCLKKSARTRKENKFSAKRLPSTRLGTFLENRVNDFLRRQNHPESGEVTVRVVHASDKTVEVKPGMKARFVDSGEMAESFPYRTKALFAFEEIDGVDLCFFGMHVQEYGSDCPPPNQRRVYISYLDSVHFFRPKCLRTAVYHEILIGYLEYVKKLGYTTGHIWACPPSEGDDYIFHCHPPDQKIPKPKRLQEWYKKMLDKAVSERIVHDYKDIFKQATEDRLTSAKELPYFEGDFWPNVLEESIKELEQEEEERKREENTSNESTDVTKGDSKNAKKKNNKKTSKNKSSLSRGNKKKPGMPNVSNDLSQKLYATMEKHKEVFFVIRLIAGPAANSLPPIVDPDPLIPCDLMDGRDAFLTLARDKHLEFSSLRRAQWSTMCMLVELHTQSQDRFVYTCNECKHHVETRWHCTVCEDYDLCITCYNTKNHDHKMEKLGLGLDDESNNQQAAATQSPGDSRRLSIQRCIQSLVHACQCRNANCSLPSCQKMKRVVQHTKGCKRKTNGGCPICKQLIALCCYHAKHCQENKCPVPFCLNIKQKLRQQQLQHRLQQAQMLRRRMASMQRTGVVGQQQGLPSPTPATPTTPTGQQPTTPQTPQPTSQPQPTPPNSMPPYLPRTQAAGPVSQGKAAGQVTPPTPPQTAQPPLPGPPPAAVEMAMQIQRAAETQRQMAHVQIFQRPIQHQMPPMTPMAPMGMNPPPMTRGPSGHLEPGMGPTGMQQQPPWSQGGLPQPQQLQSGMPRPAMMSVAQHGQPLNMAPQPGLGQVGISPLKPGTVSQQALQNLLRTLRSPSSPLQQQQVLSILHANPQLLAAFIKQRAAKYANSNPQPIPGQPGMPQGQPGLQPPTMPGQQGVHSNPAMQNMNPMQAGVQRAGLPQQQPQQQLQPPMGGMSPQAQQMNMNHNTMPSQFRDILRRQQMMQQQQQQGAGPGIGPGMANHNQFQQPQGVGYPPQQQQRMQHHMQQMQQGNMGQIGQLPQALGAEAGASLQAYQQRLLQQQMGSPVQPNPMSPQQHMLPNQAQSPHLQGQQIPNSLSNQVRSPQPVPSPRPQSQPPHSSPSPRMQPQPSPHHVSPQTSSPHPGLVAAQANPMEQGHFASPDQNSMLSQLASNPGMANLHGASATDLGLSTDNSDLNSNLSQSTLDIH

B1: 6-6CL1: STAMP fragment amino acids 623-834, coactivator interaction domain (CID) (protein)
chain: ENTPKENSMKVREWNNKGGHCCKLETQELEPKFNLMQILQDNGNLSKMQARIAFSAYLQHVQIRLMKDSGGQTFSASWAAKEDEQMELVVRFLKRASNNLQHSLRMVLPSRRLALLERRRILAHQLGDFIIVYNKETEQMAEKKSKKKVEEEEEDGVNMENFQEFIRQASEAELEEVLTFYTQKNKSASVFLGTHSKISKNNNNYSDSGAKG
Regarding B1, the “association with p300” value with p300 is “negligible association”.

B2: STAMP834C: STAMP fragment amino acids 834-1277, receptor interaction domain (RID) (protein)
chain: GDHPETIMEEVKIKPPKQQQTTEIHSDKLSRFTTSAEKEAKLVYSNSSSGPTATLQKIPNTHLSSVTTSDLSPGPCHHSSLSQIPSAIPSMPHQPTILLNTVSASASPCLHPGAQNIPSPTGLPRCRSGSHTIGPFSSFQSAAHIYSQKLSRPSSAKAGSCYLNKHHSGIAKTQKEGEDASLYSKRYNQSMVTAELQRLAEKQAARQYSPSSHINLLTQQVTNLNLATGIINRSSASAPPTLRPIISPSGPTWSTQSDPQAPENHSSSPGSRSLQTGGFAWEGEVENNVYSQATGVVPQHKYHPTAGSYQLQFALQQLEQQKLQSRQLLDQSRARHQAIFGSQTLPNSNLWTMNNGAGCRISSATASGQKPTTLPQKVVPPPSSCASLVPKPPPNHEQVLRRATSQKASKGSSAEGQLNGLQSSLNPAASVPITSSTDPAHTKI
For the molecule B2, in the experiment with PPARγ2, the “interaction with PPARγ2” value was “lack of interaction”.

B3: STAMP: SRC-1 and TIF2 Associated Modulatory Protein, 1277 amino acid human polypeptide, expressed from transfected plasmid (protein)
chain: MARDLEETASSSEDEEVISQEDHPCIMWTGGCRRIPVLVFHADAILTKDNNIRVIGERYHLSYKIVRTDSRLVRSILTAHGFHEVHPSSTDYNLMWTGSHLKPFLLRTLSEAQKVNHFPRSYELTRKDRLYKNIIRMQHTHGFKVFHILPQTFLLPAEYAEFCNSYSKDRGPWIVKPVASSRGRGVYLINNPNQISLEENILVSRYINNPLLIDDFKFDVRLYVLVTSYDPLVIYLYEEGLARFATVRYDQGAKNIRNQFMHLTNYSVNKKSGDYVSCDDPEVEDYGNKWSMSAMLRYLKQEGRDTTALMAHVEDLIIKTIISAELAIATACKTFVPHRSSCFELYGFDVLIDSTLKPWLLEVNLSPSLACDAPLDLKIKASMISDMFTVVGFVCQDPAQRASTRPIYPTFESSRRNPFQKPQRCRPLSASDAEMKNLVGSAREKGPGKLGGSVLGLSMEEIKVLRRVKEENDRRGGFIRIFPTSETWEIYGSYLEHKTSMNYMLATRLFQDRMTADGAPELKIESLNSKAKLHAALYERKLLSLEVRKRRRRSSRLRAMRPKYPVITQPAEMNVKTETESEEEEEVALDNEDEEQEASQEESAGFLRENQAKYTPSLTALVENTPKENSMKVREWNNKGGHCCKLETQELEPKFNLMQILQDNGNLSKMQARIAFSAYLQHVQIRLMKDSGGQTFSASWAAKEDEQMELVVRFLKRASNNLQHSLRMVLPSRRLALLERRRILAHQLGDFIIVYNKETEQMAEKKSKKKVEEEEEDGVNMENFQEFIRQASEAELEEVLTFYTQKNKSASVFLGTHSKISKNNNNYSDSGAKGDHPETIMEEVKIKPPKQQQTTEIHSDKLSRFTTSAEKEAKLVYSNSSSGPTATLQKIPNTHLSSVTTSDLSPGPCHHSSLSQIPSAIPSMPHQPTILLNTVSASASPCLHPGAQNIPSPTGLPRCRSGSHTIGPFSSFQSAAHIYSQKLSRPSSAKAGSCYLNKHHSGIAKTQKEGEDASLYSKRYNQSMVTAELQRLAEKQAARQYSPSSHINLLTQQVTNLNLATGIINRSSASAPPTLRPIISPSGPTWSTQSDPQAPENHSSSPGSRSLQTGGFAWEGEVENNVYSQATGVVPQHKYHPTAGSYQLQFALQQLEQQKLQSRQLLDQSRARHQAIFGSQTLPNSNLWTMNNGAGCRISSATASGQKPTTLPQKVVPPPSSCASLVPKPPPNHEQVLRRATSQKASKGSSAEGQLNGLQSSLNPAASVPITSSTDPAHTKI
On to B3, for which the “co-immunoprecipitation of GRIP1 with Flag-STAMP by anti-Flag antibody” value in the experiment with GRIP1 is “co-immunoprecipitated”.
